# Assay results published in paper PMC9381698, “Generation of synthetic antibody fragments with optimal complementarity determining region lengths for Notch-1 recognition” (Frontiers in Microbiology, 2022).
# B1: phage-displayed Fab N1/F/R2 (Fab, V domains shown)
# VH: EVQLVESGGGLVQPGGSLRLSCAASGFNFSSSSIHWVRQAPGKGLEWVASIYSYYGYTYYADSVKGRFTISADTSKNTAYLQMNSLRAEDTAVYYCARSWWGGSWYAALDYWGQGTLVTVSS
# VL: DIQMTQSPSSLSASVGDRVTITCRASQSVSSAVAWYQQKPGKAPKLLIYSASSLYSGVPSRFSGSRSGTDFTLTISSLQPEDFATYYCQQWWSLITFGQGTKVEIK
# notes: as the light chain of m15; as the heavy chain of m15; Reconstructed by Kunkel mutagenesis in the MBP phagemid
# B2: Fab N1/F/1 (Fab, V domains shown)
# VH: EVQLVESGGGLVQPGGSLRLSCAASGFNISSYSMHWVRQAPGKGLEWVAYISSSYGSTYYADSVKGRFTISADTSKNTAYLQMNSLRAEDTAVYYCARSWALDYWGQGTLVTVSS
# VL: DIQMTQSPSSLSASVGDRVTITCRASQSVSSAVAWYQQKPGKAPKLLIYSASSLYSGVPSRFSGSRSGTDFTLTISSLQPEDFATYYCQQYWGPITFGQGTKVEIK
# notes: Library-F Fab on a modified trastuzumab framework; Library-F Fab on a modified trastuzumab framework, CDRs L1 and L2 fixed; The Fab has a His tag (detected with anti-HIS antibody and biosensors); Library-F framework: Persson et al., 2013; source: E. coli BL21, purified (Protein-L resin)
# B3: Fab N1/F/1 (purified soluble Fab) (Fab, V domains shown)
# VH: EVQLVESGGGLVQPGGSLRLSCAASGFNISSYSMHWVRQAPGKGLEWVAYISSSYGSTYYADSVKGRFTISADTSKNTAYLQMNSLRAEDTAVYYCARSWALDYWGQGTLVTVSS
# VL: DIQMTQSPSSLSASVGDRVTITCRASQSVSSAVAWYQQKPGKAPKLLIYSASSLYSGVPSRFSGSRSGTDFTLTISSLQPEDFATYYCQQYWGPITFGQGTKVEIK
# notes: light chain on the modified trastuzumab framework of Library-F (Persson et al., 2013); CDRs L1 and L2 fixed; Fab heavy chain on the modified trastuzumab framework of Library-F; short CDRH3; The Fab is detected by an anti-HIS antibody; source: E. coli BL21, purified (Protein-L resin)
# B4: Fab N1/F/R3 (Fab, V domains shown)
# VH: EVQLVESGGGLVQPGGSLRLSCAASGFNIYSSYMHWVRQAPGKGLEWVASIYPYYGYTSYADSVKGRFTISADTSKNTAYLQMNSLRAEDTAVYYCARYFSYGPFYYGSGLDYWGQGTLVTVSS
# VL: DIQMTQSPSSLSASVGDRVTITCRASQSVSSAVAWYQQKPGKAPKLLIYSASSLYSGVPSRFSGSRSGTDFTLTISSLQPEDFATYYCQQGFSLITFGQGTKVEIK
# notes: Library-F rare Fab reconstructed from NGS information, modified trastuzumab framework; Library-F rare Fab reconstructed from NGS information, modified trastuzumab framework, CDRs L1 and L2 fixed; The Fab has a His tag (detected with anti-HIS antibody and biosensors); Library-F framework: Persson et al., 2013; source: E. coli BL21, purified (Protein-L resin)
# B5: phage-displayed Fab N1/F/R3 (Fab, V domains shown)
# VH: EVQLVESGGGLVQPGGSLRLSCAASGFNIYSSYMHWVRQAPGKGLEWVASIYPYYGYTSYADSVKGRFTISADTSKNTAYLQMNSLRAEDTAVYYCARYFSYGPFYYGSGLDYWGQGTLVTVSS
# VL: DIQMTQSPSSLSASVGDRVTITCRASQSVSSAVAWYQQKPGKAPKLLIYSASSLYSGVPSRFSGSRSGTDFTLTISSLQPEDFATYYCQQGFSLITFGQGTKVEIK
# notes: as the light chain of m16; as the heavy chain of m16; Reconstructed by Kunkel mutagenesis in the MBP phagemid
# B6: Fab N1/F/2 (purified soluble Fab) (Fab, V domains shown)
# VH: EVQLVESGGGLVQPGGSLRLSCAASGFNLSSYSIHWVRQAPGKGLEWVASISSSYGYTYYADSVKGRFTISADTSKNTAYLQMNSLRAEDTAVYYCARGYYAFDYWGQGTLVTVSS
# VL: DIQMTQSPSSLSASVGDRVTITCRASQSVSSAVAWYQQKPGKAPKLLIYSASSLYSGVPSRFSGSRSGTDFTLTISSLQPEDFATYYCQQWWSFPLITFGQGTKVEIK
# notes: as for B3
# B7: Fab N1/F/2 (Fab, V domains shown)
# VH: EVQLVESGGGLVQPGGSLRLSCAASGFNLSSYSIHWVRQAPGKGLEWVASISSSYGYTYYADSVKGRFTISADTSKNTAYLQMNSLRAEDTAVYYCARGYYAFDYWGQGTLVTVSS
# VL: DIQMTQSPSSLSASVGDRVTITCRASQSVSSAVAWYQQKPGKAPKLLIYSASSLYSGVPSRFSGSRSGTDFTLTISSLQPEDFATYYCQQWWSFPLITFGQGTKVEIK
# notes: as for B2
# B8: Fab N1/F/3 (Fab, V domains shown)
# VH: EVQLVESGGGLVQPGGSLRLSCAASGFNLYSYYIHWVRQAPGKGLEWVASISSYYGYTSYADSVKGRFTISADTSKNTAYLQMNSLRAEDTAVYYCARYWHGALDYWGQGTLVTVSS
# VL: DIQMTQSPSSLSASVGDRVTITCRASQSVSSAVAWYQQKPGKAPKLLIYSASSLYSGVPSRFSGSRSGTDFTLTISSLQPEDFATYYCQQGYFTYLFTFGQGTKVEIK
# notes: as for B2
# B9: Fab N1/F/R1 (Fab, V domains shown)
# VH: EVQLVESGGGLVQPGGSLRLSCAASGFNIYSSYIHWVRQAPGKGLEWVASIYPYYGSTYYADSVKGRFTISADTSKNTAYLQMNSLRAEDTAVYYCARYAHFSVYGAMDYWGQGTLVTVSS
# VL: DIQMTQSPSSLSASVGDRVTITCRASQSVSSAVAWYQQKPGKAPKLLIYSASSLYSGVPSRFSGSRSGTDFTLTISSLQPEDFATYYCQQWYGGYALFTFGQGTKVEIK
# notes: as for B4
# B10: phage-displayed Fab N1/ModF/1 (Fab, V domains shown)
# VH: EVQLVESGGGLVQPGGSLRLSCAASGFNLYSSYMHWVRQAPGKGLEWVAYISPSYSYTYYADSVKGRFTISADTSKNTAYLQMNSLRAEDTAVYYCARWGHSPSGVGWYGALDYWGQGTLVTVSS
# VL: DIQMTQSPSSLSASVGDRVTITCRASQSVSSAVAWYQQKPGKAPKLLIYSASSLYSGVPSRFSGSRSGTDFTLTISSLQPEDFATYYCQQPSSHSAALITFGQGTKVEIK
# notes: light chain on the modified trastuzumab framework of the Modified-F library (template: anti-MBP Fab phagemid of Library-F, Persson et al., 2013); CDRs L1 and L2 fixed; Fab heavy chain on the modified trastuzumab framework of the Modified-F library; The Modified-F library uses an M13 system that allows bivalent Fab display
# B11: Fab N1/ModF/5 (Fab, V domains shown)
# VH: EVQLVESGGGLVQPGGSLRLSCAASGFNISSSYMHWVRQAPGKGLEWVASIYSYSGSTYYADSVKGRFTISADTSKNTAYLQMNSLRAEDTAVYYCARSGYSGVSGSVYSYWPFYGLDYWGQGTLVTVSS
# VL: DIQMTQSPSSLSASVGDRVTITCRASQSVSSAVAWYQQKPGKAPKLLIYSASSLYSGVPSRFSGSRSGTDFTLTISSLQPEDFATYYCQQGPYHGYSLITFGQGTKVEIK
# notes: Modified-F library Fab on a modified trastuzumab framework; Modified-F library Fab on a modified trastuzumab framework, CDRs L1 and L2 fixed; The Fab has a His tag (detected with anti-HIS antibody and biosensors); Template phagemid derived from the anti-MBP Fab of Library-F (Persson et al., 2013); source: E. coli BL21, purified (Protein-L resin)
# B12: Fab N1/ModF/5 (purified soluble Fab) (Fab, V domains shown)
# VH: EVQLVESGGGLVQPGGSLRLSCAASGFNISSSYMHWVRQAPGKGLEWVASIYSYSGSTYYADSVKGRFTISADTSKNTAYLQMNSLRAEDTAVYYCARSGYSGVSGSVYSYWPFYGLDYWGQGTLVTVSS
# VL: DIQMTQSPSSLSASVGDRVTITCRASQSVSSAVAWYQQKPGKAPKLLIYSASSLYSGVPSRFSGSRSGTDFTLTISSLQPEDFATYYCQQGPYHGYSLITFGQGTKVEIK
# notes: light chain on the modified trastuzumab framework of the Modified-F library (template: anti-MBP Fab phagemid of Library-F, Persson et al., 2013); CDRs L1 and L2 fixed; Fab heavy chain on the modified trastuzumab framework of the Modified-F library; long CDRH3; The Fab is detected by an anti-HIS antibody; source: E. coli BL21, purified (Protein-L resin)
# B13: Fab N1/ModF/2 (Fab, V domains shown)
# VH: EVQLVESGGGLVQPGGSLRLSCAASGFNLYSSYIHWVRQAPGKGLEWVAYISPYSGSTYYADSVKGRFTISADTSKNTAYLQMNSLRAEDTAVYYCARYGYAYHPYHSGYWYGALDYWGQGTLVTVSS
# VL: DIQMTQSPSSLSASVGDRVTITCRASQSVSSAVAWYQQKPGKAPKLLIYSASSLYSGVPSRFSGSRSGTDFTLTISSLQPEDFATYYCQQVSAGYGPPITFGQGTKVEIK
# notes: as for B11
# B14: Fab N1/ModF/2 (purified soluble Fab) (Fab, V domains shown)
# VH: EVQLVESGGGLVQPGGSLRLSCAASGFNLYSSYIHWVRQAPGKGLEWVAYISPYSGSTYYADSVKGRFTISADTSKNTAYLQMNSLRAEDTAVYYCARYGYAYHPYHSGYWYGALDYWGQGTLVTVSS
# VL: DIQMTQSPSSLSASVGDRVTITCRASQSVSSAVAWYQQKPGKAPKLLIYSASSLYSGVPSRFSGSRSGTDFTLTISSLQPEDFATYYCQQVSAGYGPPITFGQGTKVEIK
# notes: as for B12
# What was measured:
# [1] = target: T1, recombinant Fc-tag-fused human Notch-1 extracellular domain (Homo sapiens, UniProt P46531); experiment: ELISA; phage-ELISA: Notch-1 and control proteins immobilised at 5 ug/ml on MaxiSorp plates; phage-displayed Fab at 10^12 PFU/ml in PBT for 30 min; detected with HRP-conjugated anti-M13 antibody, Abs450; conditions: one partner purified
# T1 construct: Notch-1, human, extracellular domain; No catalogue number and no residue limits are printed; also called N1; source: bought: R&D Systems
# T1 sequence (P46531 19-1735): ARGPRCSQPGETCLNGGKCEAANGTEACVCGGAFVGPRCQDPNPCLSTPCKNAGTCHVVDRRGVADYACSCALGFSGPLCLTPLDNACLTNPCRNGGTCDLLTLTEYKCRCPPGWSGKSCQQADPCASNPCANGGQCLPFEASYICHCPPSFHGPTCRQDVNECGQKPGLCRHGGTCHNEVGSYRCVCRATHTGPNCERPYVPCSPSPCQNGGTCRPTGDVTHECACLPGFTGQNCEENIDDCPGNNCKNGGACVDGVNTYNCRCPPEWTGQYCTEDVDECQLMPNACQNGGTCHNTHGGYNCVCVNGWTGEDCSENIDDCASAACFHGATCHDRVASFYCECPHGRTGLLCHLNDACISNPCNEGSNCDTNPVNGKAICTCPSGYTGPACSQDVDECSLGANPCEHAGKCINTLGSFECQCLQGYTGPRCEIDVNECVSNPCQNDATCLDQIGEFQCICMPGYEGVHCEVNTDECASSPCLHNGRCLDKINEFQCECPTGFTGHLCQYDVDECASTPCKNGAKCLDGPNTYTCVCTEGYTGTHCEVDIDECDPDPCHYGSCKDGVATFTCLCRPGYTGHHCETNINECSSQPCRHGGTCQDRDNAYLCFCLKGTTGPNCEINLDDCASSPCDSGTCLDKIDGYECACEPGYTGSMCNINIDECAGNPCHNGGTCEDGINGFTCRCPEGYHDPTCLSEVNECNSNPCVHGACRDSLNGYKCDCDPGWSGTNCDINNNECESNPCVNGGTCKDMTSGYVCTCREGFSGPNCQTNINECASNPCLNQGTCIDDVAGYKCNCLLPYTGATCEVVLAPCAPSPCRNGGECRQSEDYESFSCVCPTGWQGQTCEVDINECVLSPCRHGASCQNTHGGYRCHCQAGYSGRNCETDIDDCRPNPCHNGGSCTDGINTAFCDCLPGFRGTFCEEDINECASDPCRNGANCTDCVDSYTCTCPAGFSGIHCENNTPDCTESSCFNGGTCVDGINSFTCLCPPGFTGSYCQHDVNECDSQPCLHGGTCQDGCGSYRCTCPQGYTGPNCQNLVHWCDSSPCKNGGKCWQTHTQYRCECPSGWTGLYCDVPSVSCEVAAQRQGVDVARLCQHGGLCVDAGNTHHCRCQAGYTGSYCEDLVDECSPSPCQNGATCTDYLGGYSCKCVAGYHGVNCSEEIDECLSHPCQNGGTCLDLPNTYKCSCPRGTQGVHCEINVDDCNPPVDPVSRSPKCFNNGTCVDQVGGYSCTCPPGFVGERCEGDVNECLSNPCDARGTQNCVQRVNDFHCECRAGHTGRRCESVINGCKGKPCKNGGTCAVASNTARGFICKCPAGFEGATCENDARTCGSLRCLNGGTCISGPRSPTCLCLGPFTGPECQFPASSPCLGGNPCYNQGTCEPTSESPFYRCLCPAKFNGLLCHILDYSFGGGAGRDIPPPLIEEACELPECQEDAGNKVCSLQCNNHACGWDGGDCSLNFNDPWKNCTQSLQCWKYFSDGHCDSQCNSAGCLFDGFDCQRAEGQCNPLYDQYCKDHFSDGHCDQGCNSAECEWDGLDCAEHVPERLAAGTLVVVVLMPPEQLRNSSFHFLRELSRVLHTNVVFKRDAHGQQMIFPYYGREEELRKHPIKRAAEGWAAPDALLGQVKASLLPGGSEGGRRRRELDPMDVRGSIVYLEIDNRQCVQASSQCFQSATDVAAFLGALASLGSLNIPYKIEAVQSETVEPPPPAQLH
# [2] = target: T2, recombinant Fc-tag-fused human Notch-1 extracellular domain (Homo sapiens, UniProt P46531); experiment: BLI; Fabs immobilised on amine-reactive generation-2 or anti-Fab CH1 biosensors, target proteins in solution at at least three concentrations; 25°C, PBS; global fit to a 1:1 binding model; apparent constants (Fc fusions may dimerize); conditions: both partners purified
# T2 construct: Notch-1, human, extracellular domain; the R&D Systems product may hold only part of the ectodomain (surmise); also called N1; Fc-Notch; source: bought: R&D Systems
# T2 sequence (P46531 19-1735): as above
# [3] = target: T1, recombinant Fc-tag-fused human Notch-1 …; experiment: ELISA; multi-point Fab-ELISA: target immobilised at 5 ug/ml on MaxiSorp plates; purified Fab 0.01 nM-1 uM in PT for 30 min; detected with HRP-conjugated anti-HIS antibody; EC50 from a one-site specific-binding fit; conditions: both partners purified
# [4] = target: T1, recombinant Fc-tag-fused human Notch-1 …; experiment: BLI; Octet RED384; Fabs immobilised on amine-reactive generation-2 or anti-Fab CH1 biosensors, target proteins in solution at three or more concentrations; 25 C, PBS; global 1:1 fit; apparent KD (Fc-Notch proteins may dimerize, avidity); conditions: both partners purified
Binder,koff [2] [s⁻¹],kon [2] [M⁻¹ s⁻¹],also measured
B1,,,fold weaker phage-ELISA signal than the high-frequency Fabs [1]: ~4 fold
B2,0.000118,296000,
B3,,,EC50 [3]: ~4 nM; Kd [4]: 0.45 ± 0.05 nM
B4,0.000484,85300,
B5,,,fold weaker phage-ELISA signal than the high-frequency Fabs [1]: ~10 fold
B6,,,EC50 [3]: ~4 nM; Kd [4]: 0.45 ± 0.05 nM
B7,0.000123,322000,
B8,0.000218,122000,
B9,0.000154,76400,
B10,,,binding result [1]: binds
B11,8.15e-05,124000,
B12,,,EC50 [3]: 2.4 nM; Kd [4]: 0.68 nM
B13,1.91e-05,158000,
B14,,,EC50 [3]: 1.7 nM; Kd [4]: 0.16 nM
